Measured values reported in patent US20090124564A1 (YEDA RESEARCH AND DEVELOPMENT, published 2009).

Molecular target: T1, mouse BCL-XL (mouse, UniProt Q64373 1-233)
T1 construct: whole, on cells; In mitochondria of FL5.12-BCL-XL cells
Assay: BSOCOES cross-linking in TNFα-treated FL5.12-BCL-XL cells, excised 45 kDa gel section, alkaline reversal, Western blots
Description: FIG. 16a-FL5.12-BCL-XL cells were induced for 5 hours in the presence TNFα/CHX (lanes 3 and 4) or were remained un-induced (lanes 1 and 2), following which mitochondria were prepared from the cells and were treated with the BSOCOES cross-linker (+) (lanes 2 and 4) or remained untreated (−) (lanes 1 and 3). At the end of the incubation, the membranes were lysed and were size-fractionated by SDS-PAGE and immunoblotted using anti-BID Abs. FIGS. 16b-d—The experiment presented in FIG. 16a was repeated and the gel sections corresponding to the position of the 45 kDa band in lanes 3 and 4 (FIG. 16a; marked by boxes) were excised, incubated in alkaline conditions, and later resolved as described in FIGS. 12a-c. Lane 1—excised gel band from lane 3 of the gel presented in FIG. 16a; lane 2—excised gel band from lane 4 of the gel presented in FIG. 16a. […] The asterisk marks cross-reactive substances that might have been released from the gel sections.
To assess whether this band represented a complex between tBID (15 kDa) and BCL-XL (30 kDa), the experiment was repeated and the gel sections corresponding to the position of the 45 kDa band in lanes 3 and 4 (marked by boxes in FIG. 16a) were excised, incubated in alkaline conditions, and later resolved as described in Example 7, hereinabove and in FIGS. 12a-c.

T1 sequence (Q64373 whole entry): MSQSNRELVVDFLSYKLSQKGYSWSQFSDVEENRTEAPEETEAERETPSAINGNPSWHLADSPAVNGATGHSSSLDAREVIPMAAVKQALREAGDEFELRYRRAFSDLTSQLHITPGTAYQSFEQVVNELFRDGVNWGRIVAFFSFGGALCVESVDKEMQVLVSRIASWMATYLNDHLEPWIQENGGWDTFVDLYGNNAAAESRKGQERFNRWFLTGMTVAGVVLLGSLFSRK

- binding result: binds
B1: tBID, endogenous, in TNFα/CHX-treated FL5.12 cells (other)
chain: GSQASRSFNQGRIEPDSESQEEIIHNIARHLAQIGDEMDHNIQPTLVRQLAAQFMNGSLSEEDKRNCLAKALDEVKTAFPRDMENDKAMLIMTMLLAKKVASHAPSLLRDVFHTTVNFINQNLFSYVRNLVRNEMD
notes: FL5.12 is a murine cell line; also called endogenous tBID
